Results taken from patent US20040052816A1 (Pfizer, published 2004).

Target: the molecule itself
Assay: self-association: retained by a 100,000 MW cutoff membrane in diafiltration

B1: recombinant 20 kDa surface associated protein from S. pneumoniae (Pneumo Protective Protein 1) (other)
chain: MNEVKKMVELKKEAVKDVTSLTKAAPVALAKTKEVLNQAVADLYVAHVALHQVHWYMHGRGFLVWHPKMDEYMEALDGQLDEISERLITLGGSPFSTLTEFLQNSEIEEEAGEYRNVEESLERVLVIYRYLSELFQKGLDVTDEEGDDVTNGIFAGAKTETDKTIWMLAAELGQAPGL
notes: also called r20 kDa; r20kDa
B1: binds.
